Columns and labels:
[1] = target: human red cone opsin fused at its C-terminus to eGFP or mCherry (human) (UniProt P04000); test: fluorescence correlation spectroscopy
[2] = target: human red cone opsin fused at its C-terminus to eGFP or mCherry (human) (UniProt P04000); test: FRET or BRET
[3] = target: human red cone opsin fused at its C-terminus to eGFP or mCherry (human) (UniProt P04000); test: pulsed-interleaved excitation fluorescence cross-correlation spectroscopy
[4] = target: human red cone opsin with C-terminal 1D4 tag (pcDNA3.1(+), without eGFP) (human) (UniProt P04000); test: cross-linking

average molecular brightness [1] [cpsm] | stoichiometry N [1] | FRET efficiency (average) [2] [%] | FRET efficiency (highest single-cell value) [2] [%] | median fc (relative cross-correlation) [3] | percent DSG dimers (of monomer plus dimer bands) [4] [%] | Substance
738 | 2 | 3.6 | 12 | 0.19 |  | human red cone opsin fused at its C-terminus to eGFP or mCherry (from UniProt P04000 1-352) (receptor)
 |  |  |  |  | 79 | human red cone opsin with C-terminal 1D4 tag (pcDNA3.1(+), without eGFP) (from UniProt P04000 1-352) (receptor)
